Patent US11752210B2, “Sensitizing composition using electromagnetic waves for thermal therapy of cancers, and cancer therapy using same” (JINIS CO., LTD., priority 2013, dated 2023)

Key:
[1] = tested on: normal human cells, i.e. stromal cells; test: In vitro temperature elevation in normal cells cultured with transferrin, after electromagnetic waves (Test Example 4); assay type: cell-based; settings: normal cell line; all concentrations (0 to 5 mg/ml); cultured 4 hr, washed; 100 W for 3 min
Procedure: (§1) The temperature elevation by the metal ion-noncovalently bound apotransferrin was evaluated through in vitro cell testing. A cancer cell line […] Sciences) in which the transferrin receptor was over-expressed was cultured, and 0.1 ml of a cell suspension at a concentration of 1×10^3 cells/ml was aliquoted into a 96-well plate and cultured in a CO2 incubator at 37° C. for 12 hr. As a control, normal human cells, i.e. stromal cells, were cultured, and 0.1 ml thereof was aliquoted at a concentration of 3×10^3 cells/ml into a 96-well plate and cultured in a CO2 incubator at 37° C. for 12 hr. […] After completion of the culturing of transferrin and cells, each plate was washed with a DMEM medium, thus removing transferrin that was not introduced into the cells. Next, each plate was exposed to an energy dose of 100 W for 3 min using a radio-frequency hyperthermia system (EHY-2000, Oncothermia), and changes in the temperature were measured using a thermal imaging camera ([…], Korea Rental, Korea).

[2] = tested on: NCI-H460-luc2 tumor xenograft; test: Thermal cancer therapy with sensitizer, bioluminescence imaging of tumor size in the last week (Example 1, FIG. 12); assay type: in vivo, BALB/c athymic nude mice; settings: i.v. 1 mg/kg metal ion-bound material or 20 mg/kg transferrin, 100 W 10 min, three times per week, four weeks
Procedure: Next, the potential to treat cancer was evaluated using the metal ion-bound material as the sensitizer upon thermal therapy. A lung cancer cell line NCI-H460-luc2 ([…] Sciences) was cultured, and 5×10^6 cells were subcutaneously injected into 6 to 8-week-old female BALB/c athymic nude mice (Damul Science), and the mice were bred for about 10 days so as to grow tumorous tissue to a size of 100 mm^3 or more, yielding the tumor xenograft animal models for the evaluation of cancer treatment effects. […] After 4 hr, thermal treatment was performed three times per week for a total of four weeks using a radio-frequency hyperthermia system (EHY-2000, Oncothermia) with an energy dose of 100 W for 10 min. As such, a non-treated group and a saline-treated group were set as controls. In order to analyze the size of tumorous tissue in the last week, bioluminescence imaging was performed. For bioluminescence of a luciferase-expressing cancer cell line NCI-H460-luc2, D-luciferin (Xenogen, USA) was intraperitoneally injected at a concentration of 150 mg luciferin/kg/d into the mice, the mice were anesthetized through inhalation using a mixture of isoflurane gas and oxygen, and luminous cancer cells were subjected to overlap photographing using a Xenogen imager (IVIS 200), and analyzed using Igor Pro imaging analysis software.

[3] = In vivo accumulation of iron ion in normal and tumorous tissue after transferrin, ICP-MS (Test Example 6); design: species or system BALB/c athymic nude mice; concentration of iron ion (ICP-MS): unit not given here; settings: 16 mg/kg i.v., after 24 hr
Procedure: In order to evaluate the accumulation capacity of “metal ion-noncovalently bound apotransferrin” (transferrin) in tumorous tissue, the iron-bound transferrin aqueous solution was administered to the mice, after which the concentrations of the metal ions were measured in normal tissue and tumorous tissue. The iron ion-bound apotransferrin (transferrin) aqueous solution was prepared at 4 mg/ml, and 0.1 ml thereof was intravenously injected in a dose of 16 mg/kg. After 24 hr, each tissue was sampled in the same manner as in Test Example 5 and the concentration of the metal ion was measured through ICP-MS (Varian 800-MS, Palo Alto, US).

[4] = tested on: NCI-H460-luc2 tumor xenograft; test: Thermal cancer therapy with repeated sensitizer dosing, weekly bioluminescence imaging of tumor size over four weeks (Example 1, FIG. 13); assay type: in vivo, BALB/c athymic nude mice; settings: i.v. three times per week, 100 W 30 min or more
Procedure: After 4 hr, thermal treatment for 30 min or more using a radio-frequency hyperthermia system (EHY-2000, Oncothermia) with an energy dose of 100 W was performed for a total of four weeks, and the size of tumorous tissue was monitored every week. […] In the group to which transferrin was administered, 0.1 ml of the transferrin aqueous solution having a concentration of 5 mg/ml was intravenously injected. As such, the non-treated group and the saline-treated group were used as controls.
In order to analyze the size of tumorous tissue, bioluminescence imaging was regularly performed at an interval of one week, and analysis was performed using Igor Pro imaging analysis software.

[5] = tested on: cancer cell line NCI-H460; test: In vitro temperature elevation in cancer cells cultured with transferrin, after electromagnetic waves (Test Example 4); assay type: cell-based; settings: for increase in temperature before and after electromagnetic waves: cancer cell line, cultured 4 hr, washed, 100 W for 3 min
Procedure: as §1

[6] = tested on: NCI-H460-luc2 tumor xenograft; test: Temperature of normal and tumorous tissue of tumor xenograft mice on application of electromagnetic waves after sensitizer (Example 1, FIGS. 9 to 11); assay type: in vivo, BALB/c athymic nude mice; settings: i.v. iron sucrose 1 mg/kg or transferrin 20 mg/kg, 4 hr after administration, 100 W for 3 min
Procedure: To this end, a lung cancer cell line NCI-H460-luc2 (Califer Life Sciences) was cultured, and 5×10^6 cells were subcutaneously injected into 6 to 8-week-old female BALB/c athymic nude mice (Damul Science), and the mice were bred for about 10 days so as to grow tumorous tissue to a size of 100 mm^3 or more, yielding the tumor xenograft animal models for the evaluation of cancer treatment effects.
As the sensitizing composition for thermal therapy, iron sucrose was prepared in the same manner as in Test Example 1, and 0.1 ml of the iron sucrose aqueous solution having a concentration of 0.2 mg/ml was intravenously injected into the established tumor xenograft mice so as to reach a dose of 1 mg/kg.
As the sensitizing composition for thermal therapy, “iron ion-bound apotransferrin” (transferrin) was prepared in the same manner as in Test Example 3, and 0.1 ml of the transferrin aqueous solution having a concentration of 5 mg/ml was intravenously injected into the established tumor xenograft mice so as to reach a dose of 20 mg/kg.
As the control, saline was administered. 4 hr after administration, electromagnetic waves were applied in an energy dose of 100 W for 3 min using a radio-frequency hyperthermia system (EHY-2000, Oncothermia), and the temperatures of normal tissue and tumorous tissue were measured using a thermal imaging device (E60, Korea Rental, Korea).

Question: For “transferrin: iron ion-bound apotransferrin prepared by reacting ferric hydroxide solution with apotransferrin at 37° C. for 30 min”, which “change in temperature before and after electromagnetic waves” value [1] is on record?
Answer: Its value is “about 7 °C”.

Question: What about the “cancer treatment effects through thermal therapy (size of tumorous tissue, bioluminescence imaging)” value [2] of the same substance?
Answer: Its value is “excellent”.

Question: And the “Fold increase of iron ion vs saline” value ([3]; Brain)?
Answer: The value was 1.26.

Question: What about the “concentration of iron ion (ICP-MS)” value ([3]; Brain) of the same substance?
Answer: Its value is 28.4 ± 3.5.

Question: And the “Fold increase of iron ion vs saline” value ([3]; Heart)?
Answer: Its value is 2.18.

Question: What about the “concentration of iron ion (ICP-MS)” value ([3]; Heart) of the same substance?
Answer: The value was 70.1 ± 12.3.

Question: What about the “Fold increase of iron ion vs saline” value ([3]; Kidney) of the same substance?
Answer: The value was 0.72.

Question: And the “concentration of iron ion (ICP-MS)” value ([3]; Kidney)?
Answer: The value was 41.2 ± 1.7.

Question: What about the “Fold increase of iron ion vs saline” value ([3]; Liver) of the same substance?
Answer: Its value is 1.27.

Question: What about the “concentration of iron ion (ICP-MS)” value ([3]; Liver) of the same substance?
Answer: Its value is 94.7 ± 8.1.

Question: What about the “Fold increase of iron ion vs saline” value ([3]; Lung) of the same substance?
Answer: Its value is 1.55.

Question: And the “concentration of iron ion (ICP-MS)” value ([3]; Lung)?
Answer: Its value is 43.9 ± 17.9.

Question: And the “Fold increase of iron ion vs saline” value ([3]; Muscle)?
Answer: Its value is 0.87.

Question: And the “concentration of iron ion (ICP-MS)” value ([3]; Muscle)?
Answer: The value was 25.7 ± 5.2.

Question: What about the “Fold increase of iron ion vs saline” value ([3]; Stomach) of the same substance?
Answer: The value was 1.67.

Question: And the “concentration of iron ion (ICP-MS)” value ([3]; Stomach)?
Answer: The value was 46.4 ± 14.9.

Question: And the “concentration of iron ion (ICP-MS)” value ([3]; Tumor)?
Answer: The value was 43.9 ± 9.7.

Question: And the “Fold increase of iron ion vs saline” value ([3]; Tumor, 16 mg/kg)?
Answer: Its value is ≥ 3.2.

Question: And the “Fold increase of iron ion vs saline” value ([3]; Tumor, listed as Transferrin, 16 mg/kg)?
Answer: The value was 3.25.

Question: What about the “growth of cancer upon thermal treatment using electromagnetic waves (bioluminescence imaging)” value ([4]; 0.1 ml of 0.2 mg/ml (iron dextran, iron sucrose) or 5 mg/ml (transferrin), four weeks) of the same substance?
Answer: Its value is “remarkably inhibited”.

Question: And the “size of cancer after four weeks (bioluminescence imaging)” value ([4]; 0.1 ml of 5 mg/ml, after four weeks)?
Answer: Its value is “disappeared completely”.

Question: What about the “selectivity of temperature elevation depending on concentration, cancer vs normal cell line” value ([5]; FIGS. 5 to 8) of the same substance?
Answer: Its value is “more selective in the cancer cell line than in the normal cell line”.

Question: And the “increase in temperature before and after electromagnetic waves” value ([5]; 1 mg/ml)?
Answer: Its value is 11.9 °C.

Question: And the “increase in temperature before and after electromagnetic waves” value ([5]; 5 mg/ml)?
Answer: The value was 12.6 °C.

Question: What about the “changes in the temperature before and after the application of electromagnetic waves” value ([6]; normal tissue) of the same substance?
Answer: The value was 1 °C.

Question: And the “changes in the temperature before and after the application of electromagnetic waves” value ([6]; tumorous tissue)?
Answer: Its value is 2 °C.
